# Source: the supplement of paper PMC9170038
# Test system: MS2 coat protein
# Assay: apparent KD of MS2 coat protein; higher = weaker reporter binding
# Settings: Eterna round: R107
# Procedure: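 RNA-MaP round R107: designed RNA switches with theophylline, tryptophan, arginine or FMN aptamers are transcribed on-chip within common flanks. They are titrated with SNAP-549-labelled MS2 coat protein in RNA-MaP buffer (100 mM Tris pH 7.5, 80 mM KCl, 4 mM MgCl2), without ligand or with the indicated ligand. Median apparent KD per design.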
# [1] = input ligand: theophylline 20 uM
# [2] = input ligand: theophylline 2 mM
# [3] = input ligand: tryptophan 2.4 mM
Sequence,apparent KD of MS2 coat protein (input ligand: arginine 13.2 mM) [nM],apparent KD of MS2 coat protein [1] [nM],apparent KD of MS2 coat protein [2] [nM],apparent KD of MS2 coat protein (input ligand: none) [nM],apparent KD of MS2 coat protein [3] [nM]
GGUUACUCUACGGCCGCCACUGAUAAAUAAUAAACCUGUACAUAAACAUGAGGAUCACCCAUGUACAGGACCGGGUAGUGUAACC [Tryptophan B 7],30.5,41.2,34.7,,
UUUGGCGGCGAUCUGGGUUUCCCAGAUCGGCGAGGACCGGUACGGCCGCCACUCGUGUUUCUUUGACAUGAGGAUCACCCAUGUA [whbob_SS_trypto A_f4],51.5,82.7,93.9,62.7,42.8
UCGCUCUGGGUGAGAUCCGGAGAUAUGGAAGGAGCGCUGAUUCCAGCAGGUAGGUCGCCAACGGACAUGAGGAUCACCCAUGUAC [Same State - Arginine A (Freestyle 11)],36.6,60.4,55.5,46.9,43.1
ACGCUGAUUGAUUACAAUCAGCGAAAAGAUACCAGUGGGUAAUCCCACCCUUGGCAGCUUAAACAUGAGCAUCAGCCAUGUGGUA [TheoAS 15 #MS2Right #BothOrNeither #AlternativeMS2],77.9,114,37.2,119,142
GGAUAGGACAGAAGGAGCGACAUCGCCGAAAGGCUGGUAAGAUCACAUGAGGAUCACCCAUGUCAGGUAGGUCGCUGUCCUAUCG [ArgXB 11 #Zipper #MS2Left #StaticStem #Blueprint],92.2,360,627,283,308
GGCACAUAGUCGGCCGCCACUAGAAUAAGAUGGAAUAACAUGAGGAUCACCCAUGUAAAAGGGACUAGGACCGGGACUAUGUGCC [Goat],12.9,15.7,14.3,,
ACGGAUCGGAAACGAUCCGCGGCUAGGGUGCGAGGACCGGUACGGCCGCCACUCGGGUAACAUGAGGAUCACCCAUGUCCGAUUU [ETA NP+V+V2 #13 Same Structure],36.4,79,143,92.7,198
GAGGGUGAAUCUCUGGUCCGUUUGACGGAUACCAGCGAGAGGUAUCGCCCUUGGCAGCCGACGACAUGAGGAUCACCCAUGUUAA [#08 Exclusion-TheophyllineA],18.9,30.4,,,18
UGGGAAGGAGGAAGGAGCGCCAUAAGGGUGACUGUCUGGGUACAUGAGGAUCACCCAUGUAGGCAGGUAGGUCGCCUCGCUCUCA [Bibienoned],10.3,11.9,10.4,10.1,10.4
CGCUACAUAGCGGCCGCCACUGUCAUGGCUACGAUAGGUCACUCGUACAUGAGGAUCACCCAUGUCAGGACCGGGCUAUCCUCGC [theeternabot_exclusion_MS2_Trp_B_20],64.9,112,112,,
UGUAUGGACUGAAGGAGCGCCUCAAAAUAUCAUGAGGAUCACCCAUGGAAGGCGAAAGCCGGGCAGGUAGGUCGCAGUCCAUACU [ArgBX 3],20.2,19.1,15.6,15.6,13.4
ACCUGUACGAAAAGUGCAGGACAGGAAAAUCGAGGACCGGUACGGCCGCCACUCGUAUAAACAAGUGGAUCACCCUUGUAACCUG [TrypAS 1 #AlternativeMS2 #Zipper],458,1060,1760,664,1610
CAUUAAUUACGAAGGAGCGUCGAAAAUGGGUAAACAUGAGGAUCACCCAUGUAAAGGGAACGACAGGUAGGUCGCGUAAUUAAUG [AstromonsSSArgB#2],132,169,230,170,158
GAUGAACUAUUUGAUACCAGACCACAUGAGGAUCACCCAUGUGAGUUUCGUCCUUAGCCGGUCCCUUGGCAGCAAAUAGUUUAUC [#27 Exclusion-TheophyllineB],19.3,24.1,,,16.7
AAUCAUGAAAACAUGACAUGAGGAUCACUCCGAGGACCGGUACGGCCGCCACUCGCGAGGAGGCACAUGAGGAUCACCCAUGUUA [SS Tryp A #1],31.6,114,148,,
GCGAUGGAGCGAAGGAGCGGCUAUCACCGACAAAACAUGAGGAUCACCCAUGUUGGCAGUGGCCAGGUAGGUCGCGCUCCAUCGC [EAB NP+V+V2 #8],8.17,12.3,10.8,11.4,8.57
CUAAGAGCGGCGGCCGCCACUGGUAACCGAGAGGAGGAGCCUCUGACAUGAGGAUCACCCAUGUUCAGGACCGGGUCGUCUUAGA [#06 Same State - Tryptophan B],41.2,77.5,74.4,60.2,54.6
AACGUCUUGUCGGCCGCCACUGUAUGGUGCGUGACAUGAAACAUGAGGAUCACCCAUGUAGCAUGCAGGACCGGGACAGUGCCAA [Beriaran],7.49,13.9,11.6,,
GGUCGCCAACAUGGGUGGGUGACCCUGGAAGGAGCGAGCGAGAGCUCAGGUAGGUCGCCAGAACAUGAGGAUCACCCAUGUAAUA [(A)''-(M)'-(A)'(Arg1)-(Arg2)-(M1)-(M2)_Design14],38.3,90,139,63.5,65.8

Sequence,apparent KD of MS2 coat protein (input ligand: arginine 13.2 mM) [nM],apparent KD of MS2 coat protein [1] [nM],apparent KD of MS2 coat protein [2] [nM],apparent KD of MS2 coat protein (input ligand: none) [nM],apparent KD of MS2 coat protein [3] [nM]
GUUGGAUUCUCGGCCGCCACUGAGAGAGUCAUGUGAACAUGAGGAUCACCCAUGUAAUAUAUAUACAGGACCGGGAGGGUUGUAA [4.K],21.9,35.8,22.6,20.2,14.8
AAUCGCCUGGGUCGCAUCCUUGCUCCGGAUACCAGUCAAUAGUUGGACCCUUGGCAGCCGUAGACAUGAGGAUCACCCAUGUAUA [theeternabot_exclusion_MS2_Theo_A_42],30.2,85.5,,,55.9
CACAAUUUGUCGGCCGCCACUAAGGUAACUUUUCUCACAUGAGGAUCACCCAUGUGCCCGAAACUUAGGACCGGGAUAAUGGGUG [Usteraor],35.9,146,183,,
GCCUCCAGCCGAAGGAGCGCUAGAAGGUGACAUGAGGAUCACCCAUGUGUGUGAUGUGGCUAGCAGGUAGGUCGCGGAGGAGGUU [Exclusion - Arginine B (Freestyle 20)],62.7,133,120,68.5,89.8
AACAUACAAUUUUAGGUGGAUAUAAGGCGGCGAGGACCGGUACGGCCGCCACUCGCGUACAUGAGGAUCACCCAUGUCUGAAACU [Same State - Tryptophan A (Freestyle 5)],14.6,28.1,28.9,19.8,24.4
UGAAAGUAGGGAAGGAGCGCUACAACAUGAGGAUCACCCAUGUAAUGAGGAUCACCCAUGUGGCAGGUAGGUCGCCCAAAACAUG [#14 Same State - Arginine B],85,151,197,167,181
GGAUAGGACAGAAGGAGCGACAUGAGGAUCACCCAUGUCUACUAGGACGAAAGUCCGUCAUGUCAGGUAGGUCGCUGUCCUAUCG [#29 Exclusion - Arginine B],68.8,103,114,88.7,81.2
GGCUAGUGCAUCGAUACCAGCUACAUGAGGAUCACCCAUGUAGGAAGGGUGGCACUCGAUAGCCCUUGGCAGCGAACACCUCCGG [Cebebion],53,31.2,28.1,18.9,16.3
GACAUGAGGAUCACCCAUGUUUUCUAUGAAGGAGCGUCGGAAAUGACAGGUAGGUCGCAUGGUAGGACUUGUAUCUUGUAUGUAG [EAA NP+V+V2 #10],13.4,16.2,14.7,,15.5
UCCUCCUCCGGAAGGAGGAGGAGUUGCGAUACCAGCCCGGAAACGGGCCCUUGGCAGCGCACAUGAGGAUCACCCAUGUCAUGUU [#1 Exclusion - Theophylline A Attempt #7 (HarryS)],16.7,26.3,,,18.8
AAUAAUAAGGCGGCCGCCACUACACAUGAGGAUCACCCAUGUCUCGCGGGCUUGCGUUGGGAAUGUAGGACCGGGCCAAUAAUAA [Exclusion - Tryptophan B (Freestyle 10)],14.3,25.8,27.9,,
GUAUCUAUGUGAAAUAGAUAUGUAACUGAAGGAGCGUCAUUAAGGACAGGUAGGUCGCGGAGCACAUGAGGAUCACCCAUGUCGG [#09 Same State - Arginine A],24.7,31.1,35.5,42.1,34.3
CGAUGCGCAUUAUCCCACUGGUAUGAGUCUCGAGGACCGGUACGGCCGCCACUCGCUACCGUACAUGAGGAUCACCCAUGUAUUA [theeternabot_exclusion_MS2_Trp_A_13],23.7,38.8,35.9,,
CCAUUGAUGACGGCCGCCACUGUCUACAUGAGGAUCACCCAUGUAUAGCAGGGUGGACCUAUGGACAGGACCGGGUCACUUGUCC [Tryp B Ex t7],10.4,13.7,12.4,,
AUAUAUACAUGAGGAUCACCCAUGUUAUUUCGAGGACCGGUACGGCCGCCACUCGAUAGAGUAGAAGUAAAUUUUGUUACAUGUA [JR_SSTryptoA_Sub010],10.4,13.7,10.8,,
UGUAUGUGAUCUGAUACCAGCCUCAUAACUUGAGGAUCACCCAAGUGGAGCGGAAACGCUGGCCCUUGGCAGCAGAUCGCAUACU [TheoBS 2 #AlternativeMS2],205,200,15.3,460,556
UUGGGUAUGCGAAGGAGCGGGAAAUAUAUAUAUAUAAUCCUAACAUGAGGAUCACCCAUGUCCCAGGUAGGUCGCGCAUGUUUGG [12.K],128,250,423,207,247
GGACUCGUCACGGCCGCCACUGCGGUGGUGUGACAUGAGGAUCACCCAUGUUGUCAUGCGGCCCUUAGGACCGGGUGUCGCUUCC [#1 Exclusion - Tryptophan B Attempt #24 (HarryS)],124,221,336,,
GGUUACUCUACGGCCGCCACUGAUUAUUUAUAGUCCUGUACAUAAACAUGAGGAUCACCCAUGUACAGGACCGGGUAGUGUAACC [Tryptophan B 12],28.5,53.9,40.6,,
